Data from paper PMC11097083 (Molecular & Cellular Proteomics : MCP, 2024).
Where a chain is given by its changes, count along the chain named. In names and notes the source's numbering stands.

Tests used:
[1] = target: galectin-4 C-terminal carbohydrate recognition domain (Gal-4C) (human); test: AUC
[2] = target: galectin-4 C-terminal carbohydrate recognition domain (Gal-4C) (human); test: cross-linking
cross-linking = target: the molecule itself; test: cross-linking

## galectin-4 C-terminal carbohydrate recognition domain (Gal-4C) (domain or fragment)
[1]
  stoichiometry N: 2
[2]
  stoichiometry N: 2

B1: galectin-4 (Gal-4), full-length (natural protein, human, UniProt P56470 1-323, looked up)
chain: MAYVPAPGYQPTYNPTLPYYQPIPGGLNVGMSVYIQGVASEHMKRFFVNFVVGQDPGSDVAFHFNPRFDGWDKVVFNTLQGGKWGSEERKRSMPFKKGAAFELVFIVLAEHYKVVVNGNPFYEYGHRLPLQMVTHLQVDGDLQLQSINFIGGQPLRPQGPPMMPPYPGPGHCHQQLNSLPTMEGPPTFNPPVPYFGRLQGGLTARRTIIIKGYVPPTGKSFAINFKVGSSGDIALHINPRMGNGTVVRNSLLNGSWGSEEKKITHNPFGPGQFFDLSIRCGLDRFKVYANGQHLFDFAHRLSAFQRVDTLEIQGDVTLSYVQI
cross-linking
  stoichiometry N: 2

B2: Gal-4CM (R240H), C-terminal domain mutant of full-length Gal-4 (natural protein, human, UniProt P56470 1-323, looked up)
chain: B1 chain with R240H
cross-linking
  stoichiometry N: 2

B3: Gal-4NM (R67H), N-terminal domain mutant of full-length Gal-4 (natural protein, human, UniProt P56470 1-323, looked up)
chain: B1 chain with R67H
cross-linking
  stoichiometry N: 2
